Laboratory results reported in the supplement of paper PMC5998384.

How the values were obtained:
HeLa Kyoto [1] = assay: solubility in G1/S (NP-40 vs SDS abundance) (log2 ratio); higher = more soluble; conditions: cell cycle stage: G1/S
HeLa Kyoto [2] = assay: melting temperature (median over replicates), in situ; higher = more thermally stable
HeLa Kyoto [3] = assay: solubility change mitosis vs G1/S (difference of NP-40 vs SDS log2 ratios) (log2 ratio difference); higher = more soluble in mitosis
HeLa Kyoto [4] = assay: thermal stability score vs G1/S (z-score of summed log2 fold changes over temperatures); higher = more thermally stable than in G1/S
[5] = cell cycle stage: early G1 (4.5 h after nocodazole release)
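For melting temperature (median over replicates), in situ in this document: HeLa Kyoto cells synchronized by double thymidine or nocodazole block, proteins quantified by TMT10plex mass spectrometry, three independent biological replicates.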
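For solubility change mitosis vs G1/S (difference of NP-40 vs SDS log2 ratios) in this document: synchronized HeLa Kyoto cells (double thymidine block for G1/S, nocodazole release for mitosis), protein amounts in NP-40 versus SDS lysates quantified by mass spectrometry, three biological replicates.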
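For solubility in G1/S (NP-40 vs SDS abundance) in this document: HeLa Kyoto cells arrested at G1/S by double thymidine block, proteins quantified by TMT10plex mass spectrometry in mild NP-40 versus SDS extracts, three biological replicates.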
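For thermal stability score vs G1/S (z-score of summed log2 fold changes over temperatures) in this document: synchronized HeLa Kyoto cells, proteins quantified by TMT10plex mass spectrometry, three biological replicates, mitosis taken 0.5 h after nocodazole release, G1/S directly after double thymidine block.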

Row | Sequence | solubility in G1/S (log2) (HeLa Kyoto [1]) | melting temperature (HeLa Kyoto [2]; cell cycle stage: G1/S) [°C] | melting temperature (HeLa Kyoto [2]; cell cycle stage: mitosis) [°C] | solubility change mitosis (log2) (HeLa Kyoto [3]) | thermal stability score (HeLa Kyoto [4]; [5]) | thermal stability score (HeLa Kyoto [4]; cell cycle stage: mitosis)
1 | MGPLSARLLMQRGRPKSDRLGKIRSLDLSGLELLSEHLDPKLLCRLTQLQELDLSNNHLETLPDNLGLSHLRVLRCANNQLGDVTALCQFPKLEELSLEGNPFLTVNDNLKVSFLLPTLRKVNGKDASSTYSQVENLNRELTSRVTAHWEKFMATLGPEEEAEKAQADFVKSAVRDVRYGPESLSEFTQWRVRMISEELVAASRTQVQKANSPEKPPEAGAAHKPRARLAALKRPDDVPLSLSPSKRACASPSAQVEGSPVAGSDGSQPAVKLEPLHFLQCHSKNNSPQDLETQLWACAFEPAWEEGATSQTVATCGGEAVCVIDCQTGIVLHKYKAPGEEFFSVAWTALMVVTQAGHKKRWSVLAAAGLRGLVRLLHVRAGFCCGVIRAHKKAIATLCFSPAHETHLFTASYDKRIILWDIGVPNQDYEFQASQLLTLDTTSIPLRLCPVASCPDARLLAGCEGGCCCWDVRLDQPQKRRVCEVEFVFSEGSEASGRRVDGLAFVNEDIVASKGSGLGTICLWSWRQTWGGRGSQSTVAVVVLARLQWSSTELAYFSLSACPDKGIVLCGDEEGNVWLYDVSNILKQPPLLPAALQAPTQILKWPQPWALGQVVTKTMVNTVVANASFTYLTALTDSNIVAIWGRM [LRWD1] | -0.185 | 48 | 49.1 | -0.0674 | 1.14 | 1.7
2 | MGQGPRSPHKVGRRFPAGGKRGRGAKGSGRPLPGRKRQPWPPPDGRSEPAPDSHPHLSPEALGYFRRALSALKEAPETGEERDLMVHNIMKEVETQALALSTNRTGSEMLQELLGFSPLKPLCRVWAALRSNLRTVACHRCGVHVLQSALLQLPRLLGSAAEEEEEEEEDGKDGPTETLEELVLGLAAEVCDDFLVYCGDTHGSFVVRTLLQVLGGTILESERARPRGSQSSEAQKTPAQECKPADFEVPETFLNRLQDLSSSFLKDIAVFITDKISSFCLQVALQVLHRKLPQFCAHLCNAVIGYLSTRGSSVDGSPLLLFLRDQTSSRLLEQVLLVLEPPRLQSLFEEHLQGQLQTLAAHPIANFPLQRLLDAVTTPELLSPVFEELSPVLEAVLAQGHPGVVIALVGACRRVGAYQAKVLQLLLEAFHCAEPSSRQVACVPLFATLMAYEVYYGLTEEEGAVPAEHQVAMAAARALGDVTVLGSLLLQHLLHFSTPGLVLRSLGALTGPQLLSLAQSPAGSHVLDAILTSPSVTRKLRRRVLQNLKGQYVALACSRHGSRVLDAIWSGAALRARKEIAAELGEQNQELIRDPFGHHVARNVALTTFLKRREAWEQQQGAVAKRRRALNSILED [NOP9] | -0.0623 | 49.1 | 49.1 | 0.2 | 0.433 | 0.684
3 | MGQNDLMGTAEDFADQFLRVTKQYLPHVARLCLISTFLEDGIRMWFQWSEQRDYIDTTWNCGYLLASSFVFLNLLGQLTGCVLVLSRNFVQYACFGLFGIIALQTIAYSILWDLKFLMRNLALGGGLLLLLAESRSEGKSMFAGVPTMRESSPKQYMQLGGRVLLVLMFMTLLHFDASFFSIVQNIVGTALMILVAIGFKTKLAALTLVVWLFAINVYFNAFWTIPVYKPMHDFLKYDFFQTMSVIGGLLLVVALGPGGVSMDEKKKEW [SURF4] | 0.185 | 57.4 | 56.2 | 0.00821 | -0.529 | -2.05
4 | MGRCCFYTAGTLSLLLLVTSVTLLVARVFQKAVDQSIEKKIVLRNGTEAFDSWEKPPLPVYTQFYFFNVTNPEEILRGETPRVEEVGPYTYRELRNKANIQFGDNGTTISAVSNKAYVFERDQSVGDPKIDLIRTLNIPVLTVIEWSQVHFLREIIEAMLKAYQQKLFVTHTVDELLWGYKDEILSLIHVFRPDISPYFGLFYEKNGTNDGDYVFLTGEDSYLNFTKIVEWNGKTSLDWWITDKCNMINGTDGDSFHPLITKDEVLYVFPSDFCRSVYITFSDYESVQGLPAFRYKVPAEILANTSDNAGFCIPEGNCLGSGVLNVSICKNGAPIIMSFPHFYQADERFVSAIEGMHPNQEDHETFVDINPLTGIILKAAKRFQINIYVKKLDDFVETGDIRTMVFPVMYLNESVHIDKETASRLKSMINTTLIITNIPYIIMALGVFFGLVFTWLACKGQGSMDEGTADERAPLIRT [SCARB2] | 0.3 | 58.5 | 60.2 | -0.119 | -2.37 | -3.51
5 | MGRLASRPLLLALLSLALCRGRVVRVPTATLVRVVGTELVIPCNVSDYDGPSEQNFDWSFSSLGSSFVELASTWEVGFPAQLYQERLQRGEILLRRTANDAVELHIKNVQPSDQGHYKCSTPSTDATVQGNYEDTVQVKVLADSLHVGPSARPPPSLSLREGEPFELRCTAASASPLHTHLALLWEVHRGPARRSVLALTHEGRFHPGLGYEQRYHSGDVRLDTVGSDAYRLSVSRALSADQGSYRCIVSEWIAEQGNWQEIQEKAVEVATVVIQPSVLRAAVPKNVSVAEGKELDLTCNITTDRADDVRPEVTWSFSRMPDSTLPGSRVLARLDRDSLVHSSPHVALSHVDARSYHLLVRDVSKENSGYYYCHVSLWAPGHNRSWHKVAEAVSSPAGVGVTWLEPDYQVYLNASKVPGFADDPTELACRVVDTKSGEANVRFTVSWYYRMNRRSDNVVTSELLAVMDGDWTLKYGERSKQRAQDGDFIFSKEHTDTFNFRIQRTTEEDRGNYYCVVSAWTKQRNNSWVKSKDVFSKPVNIFWALEDSVLVVKARQPKPFFAAGNTFEMTCKVSSKNIKSPRYSVLIMAEKPVGDLSSPNETKYIISLDQDSVVKLENWTDASRVDGVVLEKVQEDEFRYRMYQTQVSDAGLYRCMVTAWSPVRGSLWREAATSLSNPIEIDFQTSGPIFNASVHSDTPSVIRGDLIKLFCIITVEGAALDPDDMAFDVSWFAVHSFGLDKAPVLLSSLDRKGIVTTSRRDWKSDLSLERVSVLEFLLQVHGSEDQDFGNYYCSVTPWVKSPTGSWQKEAEIHSKPVFITVKMDVLNAFKYPLLIGVGLSTVIGLLSCLIGYCSSHWCCKKEVQETRRERRRLMSMEMD [PTGFRN] | 0.0152 | 56.7 | 57.1 | -0.133 | -2.55 | -2.42
6 | MGRLDGKVIILTAAAQGIGQAAALAFAREGAKVIATDINESKLQELEKYPGIQTRVLDVTKKKQIDQFANEVERLDVLFNVAGFVHHGTVLDCEEKDWDFSMNLNVRSMYLMIKAFLPKMLAQKSGNIINMSSVASSVKGVVNRCVYSTTKAAVIGLTKSVAADFIQQGIRCNCVCPGTVDTPSLQERIQARGNPEEARNDFLKRQKTGRFATAEEIAMLCVYLASDESAYVTGNPVIIDGGWSL [BDH2] | 0.0418 | 51.4 | 51.3 | -0.101 | 0.0249 | -0.29
7 | MGRRALLLLLLSFLAPWATIALRPALRALGSLHLPTNPTSLPAVAKNYSVLYFQQKVDHFGFNTVKTFNQRYLVADKYWKKNGGSILFYTGNEGDIIWFCNNTGFMWDVAEELKAMLVFAEHRYYGESLPFGDNSFKDSRHLNFLTSEQALADFAELIKHLKRTIPGAENQPVIAIGGSYGGMLAAWFRMKYPHMVVGALAASAPIWQFEDLVPCGVFMKIVTTDFRKSGPHCSESIHRSWDAINRLSNTGSGLQWLTGALHLCSPLTSQDIQHLKDWISETWVNLAMVDYPYASNFLQPLPAWPIKVVCQYLKNPNVSDSLLLQNIFQALNVYYNYSGQVKCLNISETATSSLGTLGWSYQACTEVVMPFCTNGVDDMFEPHSWNLKELSDDCFQQWGVRPRPSWITTMYGGKNISSHTNIVFSNGELDPWSGGGVTKDITDTLVAVTISEGAHHLDLRTKNALDPMSVLLARSLEVRHMKNWIRDFYDSAGKQH [PRCP] | 0.0413 | 58.5 | 54.1 | -0.246 | -0.942 | -2.23
8 | MGRRSSDTEEESRSKRKKKHRRRSSSSSSSDSRTYSRKKGGRKSRSKSRSWSRDLQPRSHSYDRRRRHRSSSSSSYGSRRKRSRSRSRGRGKSYRVQRSRSKSRTRRSRSRPRLRSHSRSSERSSHRRTRSRSRDRERRKGRDKEKREKEKDKGKDKELHNIKRGESGNIKAGLEHLPPAEQAKARLQLVLEAAAKADEALKAKERNEEEAKRRKEEDQATLVEQVKRVKEIEAIESDSFVQQTFRSSKEVKKSVEPSEVKQATSTSGPASAVADPPSTEKEIDPTSIPTAIKYQDDNSLAHPNLFIEKADAEEKWFKRLIALRQERLMGSPVA [RSRC1] | -0.945 | 51.5 | 50.4 | 0.261 | -1.05 | -4.78
9 | MGRRSTSSTKSGKFMNPTDQARKEARKRELKKNKKQRMMVRAAVLKMKDPKQIIRDMEKLDEMEFNPVQQPQLNEKVLKDKRKKLRETFERILRLYEKENPDIYKELRKLEVEYEQKRAQLSQYFDAVKNAQHVEVESIPLPDMPHAPSNILIQDIPLPGAQPPSILKKTSAYGPPTRAVSILPLLGHGVPRLPPGRKPPGPPPGPPPPQVVQMYGRKVGFALDLPPRRRDEDMLYSPELAQRGHDDDVSSTSEDDGYPEDMDQDKHDDSTDDSDTDKSDGESDGDEFVHRDNGERDNNEEKKSGLSVRFADMPGKSRKKKKNMKELTPLQAMMLRMAGQEIPEEGREVEEFSEDDDEDDSDDSEAEKQSQKQHKEESHSDGTSTASSQQQAPPQSVPPSQIQAPPMPGPPPLGPPPAPPLRPPGPPTGLPPGPPPGAPPFLRPPGMPGLRGPLPRLLPPGPPPGRPPGPPPGPPPGLPPGPPPRGPPPRLPPPAPPGIPPPRPGMMRPPLVPPLGPAPPGLFPPAPLPNPGVLSAPPNLIQRPKADDTSAATIEKKATATISAKPQITNPKAEITRFVPTALRVRRENKGATAAPQRKSEDDSAVPLAKAAPKSGPSVPVSVQTKDDVYEAFMKEMEGLL [WBP11] | 0.135 | 55.4 | 53.8 | 0.186 | -1.77 | -3.87
10 | MGRTVVVLGGGISGLAASYHLSRAPCPPKVVLVESSERLGGWIRSVRGPNGAIFELGPRGIRPAGALGARTLLLVSELGLDSEVLPVRGDHPAAQNRFLYVGGALHALPTGLRGLLRPSPPFSKPLFWAGLRELTKPRGKEPDETVHSFAQRRLGPEVASLAMDSLCRGVFAGNSRELSIRSCFPSLFQAEQTHRSILLGLLLGAGRTPQPDSALIRQALAERWSQWSLRGGLEMLPQALETHLTSRGVSVLRGQPVCGLSLQAEGRWKVSLRDSSLEADHVISAIPASVLSELLPAEAAPLARALSAITAVSVAVVNLQYQGAHLPVQGFGHLVPSSEDPGVLGIVYDSVAFPEQDGSPPGLRVTVMLGGSWLQTLEASGCVLSQELFQQRAQEAAATQLGLKEMPSHCLVHLHKNCIPQYTLGHWQKLESARQFLTAHRLPLTLAGASYEGVAVNDCIESGRQAAVSVLGTEPNS [PPOX] | 0.0337 | 53.3 | 54 | -0.0988 | 0.0829 | -0.0946
